Assay [1] concerns the target Peptide ligand: GluN2B (TAMRA-NNG-…). Nature of the assay: fluorescence polarisation.
For assay [2], the target named is Peptide ligand: Stargazin (TAMRA-NNG-…). Nature of the assay: fluorescence polarisation. A general note: Polarisation of emitted light reports the rotation of a fluorescent probe.

In the case of PSD-95 PDZ1 6xHis (domain or fragment), the Kd (usually the concentration at which binding is half-saturated) worked out at 12.4 µM in assay [1] and 27.3 µM in assay [2].

The substance “PSD-95 PDZ1-2 6xHis (domain or fragment)” yielded a dissociation constant (Kd) in assay [1] of 1.9 µM.

The values are drawn from PMC8567388.
